According to US20230192803A1 (published 2023):

Experiments:
[1] = biological target: Ad293 STEAP3-2; experiment: flow cytometry cell binding; Ad293 STEAP3-2 chimera cells; affinity calculated from EC50
[2] = biological target: Ad293 Murine STEAP3-2; experiment: flow cytometry cell binding; Ad293 murine STEAP3-2 chimera cells; affinity calculated from EC50

B1: 40A3 scFv-Fc (Fc fusion)
scFv: EIVMTQSPATLSVSPGERATLSCRASQSVNSNLAWYQQKPGQAPRLLIYGASTRATGIPARFSGSGSGTEFTLTISSLQSEDFAVYYCQQYNNWPFTFGPGTKVDIKGGGGSGGGGSGGGGSGGGGSQVQLQQSGPGLVKPSQTLSLTCAISGDSVSRNSAVWNWIRQSPSRGLEWLGRTYYRSKWYNDYAVSVKSRITINPDTSKNQFSLQVNSVTPEDTAVYYCARGLLQNNFYYYMDVWGKGTTVTVSS
EC50 [1]: 20.2 nM | EC50 [2]: 28.2 nM
